Data published in article PMC9453709.

Target: SARS-CoV-2 Omicron BA.1 S glycoprotein ectodomain with S6P and GSAS mutations (SARS-CoV-2)
Assay: cryo-EM structure

“SARS-CoV-2 Omicron BA.1 S glycoprotein ectodomain with S6P and GSAS mutations (domain or fragment)” was tested. Which stoichiometry N did it give?
The stoichiometry N was 3.
